One molecule from US5876691A, “Antibody against carcionembryonic antigen (CEA)” (Cancer Research Campaign Technology Limited, priority 1993, dated 1999) can be followed below.

The nature of data set [1]: Storage stability by FPLC (Superose 12). It counts as physicochemical. The settings on record: 4° C. and -70° C. up to 6 months. On the procedure: (§1) Samples at each purification stage were analysed for endotoxin levels using Limulus ameobocyte lysate (LAL) gel clot vials (Atlas bioscan. Bognor Regis, UK) according to the manufacturers' recommended instructions; a further aliquot (three times the patient dose) was tested by injection into rabbits (Safepharm Laboratories; Derby, UK) Bacterial supernatant containing MFE-23 His, semipurified MFE-23 His and the final product were tested for the presence of bacterial DNA using the Digoxigenin (DIG) DNA labelling and detection assay (Boeringer Mannheim, Lewes, UK). A probe was constructed using a mixture of equal proportions of MFE-23 plasmid DNA and total bacterial DNA. DIG labelled DNA probes were detected after hybridisation. to target samples by enzyme-linked immunoassay using an anti-DIG alkaline phosphatase conjugate. The probe was sensitive to 12 pg of DNA. […] Stability of the antibody was assessed by storing aliquots at 4° C. and -70° C. and subsequently analysing samples at certain time intervals using a Superose 12 HR 10/30 (Pharmacia) FPLC column. Retention of antigen binding following 6 months storage at 4° C. was measured by applying a known amount of purified antibody to the CEA affinity column (refer to section 2.7) and quantitating the % bound (specific activity). […]

Data set [2] in a line: Pyrogen test by injection into rabbits. Format: in vivo. The following applies: final product, three times the patient dose. On the procedure: as §1
Data set [3] is described as follows: Stability of radiolabelled product by gel filtration on S-100 / SDS PAGE. Format: physicochemical. The following applies: 125I label, SDS PAGE and gel filtration.
Data set [4] deals with T1, CEA (Homo sapiens, UniProt P06731).
T1 sequence (P06731 35-702): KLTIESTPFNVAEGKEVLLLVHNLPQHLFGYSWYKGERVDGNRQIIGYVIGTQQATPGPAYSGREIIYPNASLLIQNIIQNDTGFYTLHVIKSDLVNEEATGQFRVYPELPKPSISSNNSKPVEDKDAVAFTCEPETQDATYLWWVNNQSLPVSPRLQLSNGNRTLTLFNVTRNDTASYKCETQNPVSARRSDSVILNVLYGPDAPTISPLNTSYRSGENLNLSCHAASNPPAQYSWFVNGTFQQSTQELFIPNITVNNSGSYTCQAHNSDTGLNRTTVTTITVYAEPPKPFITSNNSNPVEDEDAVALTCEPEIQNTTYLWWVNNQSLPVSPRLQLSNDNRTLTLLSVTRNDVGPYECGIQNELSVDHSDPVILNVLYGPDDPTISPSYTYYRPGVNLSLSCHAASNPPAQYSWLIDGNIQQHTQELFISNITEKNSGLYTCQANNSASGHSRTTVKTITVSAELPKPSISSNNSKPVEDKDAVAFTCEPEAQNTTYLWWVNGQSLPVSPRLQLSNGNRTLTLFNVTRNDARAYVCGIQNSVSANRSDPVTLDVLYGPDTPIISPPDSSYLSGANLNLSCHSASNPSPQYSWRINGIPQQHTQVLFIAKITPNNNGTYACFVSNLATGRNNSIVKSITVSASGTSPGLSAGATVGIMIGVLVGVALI
The data set is described as follows: CEA binding of radiolabelled product on CEA/Sepharose column. Here is the method:
75 μg of A5-SC and MFE-23 were iodinated with 0.5 mCi of 125-I using the Chloramine T/L-Tyrosine method^20. […] The stability of the radiolabelled products was tested by gel filtration on S-100.
MFE-cys was radiolabelled with ^99m Tc using a ^99m Tc-D-glucarate transfer method^22. 1 ml of ^99m Tc sodium pertechnetate (40.5 mCi) was added to 12.5 mg of monopotassium D-glucarate, 16.8 mg of sodium bicarbonate and 100 μg of stannous chloride (stannous chloride was made up directly before use at a concentration of 0.2 mg/ml). This solution was left for 1 min at room temperature. Then 0.5 ml was mixed with 200 μg MFE-cys in PBS/1 mM EDTA. The mixture was incubated at room temperature for 30 min and then applied to a PD 10 column (Pharmacia; primed with 3% human serum albumin in PBS) to separate the radiolabelled protein from the free pertechnetate. The efficiency of ^99m Tc uptake was tested by thin layer chromatography, using acetonitrile/water (30:20) as running solvent. An aliquot (100 μl) of diluted radiolabelled scFv (1:30 in PBS/Tween 20) was applied to a 1 ml CEA-sepharose column, containing 1 mg of CEA, to test CEA-binding. The column was washed with 8 volumes of PBS/0.05% Tween 20 and bound material was obtained by adding 3M ammoniumthiocyanate. Further, the stability of the labelled scFv was tested by applying the product (diluted 1:30) to Sephacryl S-100. To test the stability of the radiolabelled product in vivo serum taken from mice injected with the labelled scFv 24 h after administration was also applied to Sephacryl S-100. Stability of the ^99m Tc-labelled product was also tested by gel autoradiography as follows: radiolabelled MFE-cys was subjected to SDS-PAGE using a 15% non-reducing acrylamide gel. The protein was then Western blotted onto Immobilon P (Millipore), and visualised by autoradiography using Kodak X-Omatic cassette and Hyperfilm-MP film (Amersham).
Thin layer chromatography (TLC) was performed to measure % ^125 I incorporation. Antigen binding was also assessed by applying a dilution of the radiolabel to a CEA coupled Sepharose 4B (1 mg CEA; 1 ml column volume). The unbound fraction was washed through with 2 column volumes of PBS and the bound fraction with the same volume of 3M ammonium thiocyanate. A control scFv B1.8 which is not specific for CEA and MFE-23 containing a c-myc tag (MFE-23 myc) were tested as a comparison. The unbound and bound fractions were analysed for ^125 I activity using a gamma counter. Stability assessments were carried out by applying a sample of the radiolabel and unlabelled product to a 15% SDS PAGE minigel. The ^125 I-MFE-23 His was visualised by autoradiography and the unlabelled product by Coomassie blue staining. ^125 I-MFE-23 His was also applied to a 100 ml Sephacryl S-100 column (115×1 cm). 1.5 ml fractions were collected and counted for ^125 I activity.

For data set [5], the target named is T1, CEA. Put plainly: Retention of antigen binding on storage (CEA affinity column, specific activity). Further details: CEA was obtained from a patient's colorectal tumour liver metastasis by extraction using perchloric acid; from tissue; host or cells: patient's colorectal tumour liver metastasis, perchloric acid extract. Here is the method: 2 liters of MFE-23 His which had been concentrated and dialysed in PBS (400 ml) was purified using a 6 ml cyanogen bromide activated Sepharose 4B (Pharmacia Biotech.) affinity column coupled to CEA (8 mg). CEA was obtained from a patient's colorectal tumour liver metastasis by extraction using perchloric acid^34. One column pass of 30 ml supernatant per run was performed.
Samples at each purification stage were analysed for endotoxin levels using Limulus ameobocyte lysate (LAL) gel clot vials (Atlas bioscan. Bognor Regis, UK) according to the manufacturers' recommended instructions; a further aliquot (three times the patient dose) was tested by injection into rabbits (Safepharm Laboratories; Derby, UK) Bacterial supernatant containing MFE-23 His, semipurified MFE-23 His and the final product were tested for the presence of bacterial DNA using the Digoxigenin (DIG) DNA labelling and detection assay (Boeringer Mannheim, Lewes, UK). A probe was constructed using a mixture of equal proportions of MFE-23 plasmid DNA and total bacterial DNA. DIG labelled DNA probes were detected after hybridisation. to target samples by enzyme-linked immunoassay using an anti-DIG alkaline phosphatase conjugate. The probe was sensitive to 12 pg of DNA. The final product was also assayed for Cu^2+ content and compared with earlier purification stages, using flame photometry (Trace Element laboratory-University of Surrey). An aliquot was also protein sequenced using amino acid analysis by the CRC protein sequencing facility (University college of London) to confirm homogeneity of the final product and cleavage of the pelB leader sequence in the periplasm. Stability of the antibody was assessed by storing aliquots at 4° C. and -70° C. and subsequently analysing samples at certain time intervals using a Superose 12 HR 10/30 (Pharmacia) FPLC column. Retention of antigen binding following 6 months storage at 4° C. was measured by applying a known amount of purified antibody to the CEA affinity column (refer to section 2.7) and quantitating the % bound (specific activity). These values were compared by applying a known amount of MFE-23 His previously purified using the same column.

B1: MFE-23 His: MFE-23 scFv with hexa-histidine tail at the C-terminus, clinical grade (protein)
scFv: QVKLQQSGAELVRSGTSVKLSCTASGFNIKDSYMHWLRQGPEQGLEWIGWIDPENGDTEYAPKFQGKATFTTDTSSNTAYLQLSSLTSEDTAVYYCNEGTPTGPYYFDYWGQGTTVTVSSGGGGSGGGGSGGGGSENVLTQSPAIMSASPGEKVTITCSASSSVSYMHWFQQKPGTSPKLWIYSTSNLASGVPARFSGSGSGTSYSLTISRMEAEDAATYYCQQRSSYPLTFGAGTKLELK
With B1, the “stability on storage, FPLC analysis” value in data set [1] is recorded as “no evidence of aggregation”. The “pyrogenicity by in vivo rabbit testing” value in data set [2] is given as “non pyrogenic”. Also, in data set [3], the “stability of radiolabelled product” value is “monomeric, intact and unaggregated”. Moreover, the “counts in bound fraction of CEA column, % of total counts recovered” value in data set [4] (125I radiolabelled, Example 5) stood at 75%. Also, the “counts in unbound fraction of CEA column, % of total counts recovered” value in data set [4] (125I radiolabelled, Example 5) is 25%. For the same molecule, the “further counts recovered in bound fraction on reapplying the unbound fraction” value in data set [4] (% of total counts loaded, unbound fraction reapplied to CEA column) was 58%. For the same molecule, in data set [4] (after radiolabelling (125I)), the “antigen binding retained after radiolabelling” value is on record as over 75%. The “antigen binding retained after storage” value in data set [5] (6 months storage at 4° C.) amounted to 84%. Also, the “Specific activity (% bound to CEA column)” value in data set [5] (CEA antigen affinity chromatography purified (d), 1 mg applied to column) came to 89%; in data set [5] (IMAC purified (a), 2 mg applied to column, 6 months storage at 4° C.) it was 69%; in data set [5] (IMAC purified (b), 1 mg applied to column, 6 months storage at 4° C.) it was 75%; in data set [5] (IMAC purified (c), 0.5 mg applied to column, 6 months storage at 4° C.), 81%. Besides, the “mean % bound specific activity” value in data set [5] (IMAC purified material (a-c)) turned out to be 75%.
